Laboratory results from the domain aggregation screens of Martell et al. (2025).

Test: soluble fraction after stress (log2 fold change); higher = more stays soluble; pooled small domains, quantitative proteomics
Settings: stress: pH 4
In short: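 Small protein domains from pooled custom libraries were exposed to pH 4, then quantified with high-throughput quantitative proteomics. The fold change in how much of each domain remains soluble is read as aggregation propensity. It is given as log2, with higher values meaning more stayed soluble.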

Sequence	soluble fraction (log2)
HMDPRTSSLTPQERKVLELVGGGLTNRQIAAEMFLAEKTVKNYVSSLLAKLGFERRTQAAVFIASPAF	-0.0756
HMGGLIDQSIQEIIDKYSVPGKKIQKAQRLKIVAEMHTKGIFKMRGGVQQAAQALGVTRYTVYNDLEVMN	-0.259
HMTYFIADLIGLQVYTDSGELLGKVDDIYNSGSADIYVVKDELGKQILLPGIKDVIKQIDVDNEKIIVHLI	-1.62
HMGTYTSALDGIKGLGKKRKMLLLNTYKSIDVLKSVPLTELSQLIPREVAEALLTKLNRVDD	0.116
HMNIDNTWQPSEDVVEILTRSGINEDFINELIPEFIVYWTERPGTLVSYNSKFIEHVRLKWAQHSAEI	-1.04
HMQEKLELIIPVSSIGKRADVAIQDLLSSYSRAKIQEWIKSGFILLESKKISPKDIFMGGERVFIDIQQDE	-1.38
HMKTYSEAQLKIALESLIENGKKQGYLTFQEINEILPDGIINTQDLKVIISILKETGIVVAKEKPEINIDV	0.273
HMPGRKKLAIIYKNDYIGAFNLADSYRDSYEVSMYAFPKKVGKLLNRLELQGFNAYVIYDKDNEENNFNTI	0.00545
HMVLPELRLQGLPTAVLRLINRATALADDYRRLMEIAEDGRIDEWEAPEFERISENIQRVIAAGFEVL	0.1
HMPLNRFLNLPHEDKERVLLIAKKQFSTHGYDAMSLNLLLKELDISKGQFYYWFEDKADLFFTVL	0.0543
HMSSGKTGTITLQPKQTVYGITKQYKISEADLRKLNPQLDSNLKIGDKITLPLDNIQRYSDSSSNVAQT	0.22
HMKREWKDDDPTVPAGWKVAWTTTSDNRAKIAFMSPDKKIFHSRKSALQHMLAAGTYAQSDIEKMTKGL	0.377
HMDKGMQTMIDNLHKNTGKTLEEWIALVNRANFAKHGEVISFLKEKHGLTHGYANLVAHRLK	-0.361
HMAVANEAIANINMKEVKQAIHNLPEIFKNPFLLYFDGYKYHEIAEMLDEPLGTIKSRIHFARKLLKSHI	0.22
HMSELPLTQKVAIVMVALGEEASGEVMKHLSDYEIEEITQAIAGLKNISVELMDQILEEYEQHLIAG	-0.536
HMDLIFQKGDLVFSTEHNQRGIFYEYLEQGQAKISIEKQFFVVAARRLQLLTKREVLYPAGYDLDQLFV	-1.05
HMAAVPQPQRSETIVYIGGRKFYVHTVQAGETLYSIARLYGVSEQTLVANNPTMADVVKADQNVRIPVPA	-0.00329
HMIKYTIEELGELTGFTRRTIRYYVQEGLIDPPAGRGRGGFYYDSHVQQLLRIKSFQEKGIGITAMVSLM	-1.71
HMDVNSRIRQFLKKMKITVQTFESSIGKTNGYIAHTKSPTAGVLAEIAKVYPDLNLDWLITGEGEMLKN	-0.0635
HMEVGKRIAEIRKENRMSQEQFGQLFHVTRQTVSNWENAKSYPDLQTLVKISELFEITMDELLK	-0.454
HMDSIGTQIRKLREEAEMPLRKLSALLDIDQSTLSKIERDERRANTQMIEQIAKIFKVNKEQLLVA	-1.98
HMKLVESALSILEEAVDRDFHGNLGDAARYFDIPYQTIYSWLKSRKRVPSLRALEPVLEKLGVSFTT	-0.479
HMDILPRMVASEMRAVGVPPERMTREEKGTVIRNLMNAGIHQMKGAVVEIARQLHLSEPTVYRYIKREKG	-0.177
HMRTLKDSTEYLIRSMLLRGEMKVGEIYSANALAKELNISNSPVREAMMSLVDRGLLENVRNRGFRVV	-0.115
HMDTQKYDLNDDGRFDVQDVTYLQIKIAGDGELTDNQKKIADYNNDGKIDVQDVTSAQMLIS	-0.724

Sequence	soluble fraction (log2)
HMKNNLKGSPIIIAGGYGVGSKENFNLLFDLAKVLNAEVGASRAAVDAGFVEHDRQIGQTGVTVRP	-0.0469
HMTLKVQLSEISKMVSLSYIAKKYFNKSQSWLSQRINGNTIHNKPAKFTSEELATLQFALKDIGNILNSTV	-0.658
HMADVSPEAQHKMVEAFAQFGVTKEHIEQRIQRRLDAIQPAQMVTLKRIFASLRDGMSTPAEWFE	-1.03
HMAGDDEIEKIAQDILAAWPDKVAAYQAGNKGLMGLFMGELMKKSQGKANPKVASGIIQKLLD	-0.455
HMRTVLSDETYLRIREMLLTHDIAPGERINIDALARELDVSQTPVREALARLESEDLVTKEPLRGYTATK	-0.123
HMAHKRVDGTIVTPLTADTIVLRTGTHGEQPFEIRDTTRHKLESLQKGDMVILLIDTDNKVIDVAIPP	-0.263
HMLPNIKSEMEILGDNAKARLEAAELWSKKYLSNEAYDTMSKLATTADGVKAIEEIMNITKS	-0.274
HMKVEFTPAYLKKFKANKNAWKFYEAQTNTYKKQSAWYVISAKQEETRLRRLDLLIYDSENGIHIKPLRR	0.211
HMITNEDINIKKLLVVMKDTPLSANEIMDKLNIKSKETLRNMYLDPAIKKGLINLTIPDKPTSKNQKYYK	0.22
HMKTGTTGLIGEIGVVKKALTPEGKVFVHGELWRAVSKTASPEGTLVQVIKINNLVLEVEKV	0.0324
HMALMLGGLIVYLNTTAPRDDIDLIELSKDTKAMAAFGNKLASPDYNGKQFALDWHELSRDEIMSKYFS	-1.82
HMEKGNEEALEQAREAILAVQSGEKYVDLDPANAAIRRKQHALAQASDLVSQSYGKDPNRYVRIFR	0.367
HMAEMLENQLKHAKSKQEANEYIAAAIGGVSDDDPDKEYLVAAYNEISKEFHHSSAYHRLPDT	≥ 0.43
HMQKLLGPFEDFVKIKLDKYPDTKAAQMHDWLKEHYPDFPEVTPKTVYNFVMYVRQRHNIPIPD	-0.276
HMISRDPYDAGAIKRHFSASGLFSSKELAHYLGKSVSTAKNVLSDLQQQGIVEMVGQGPATKYRFI	0.285
HMEDEVSSSAAYQALLEKGVSKTLARSWVIDYGEAYVLDKVDLTTSQAARGKIKSSTAGFLKAAIEEDFHN	-0.765
HMSQIQIKLDQAIMQLPEKQRFVFMLRYFEELPYEKIAQITETSIGGAKANFHQALKKMQEIIQ	-0.397
HMDEVHYLADKERGTTWEEILIHADRDIKFLSLSATINNKNEFLEWLVSLRGTTSLIHSSTRPIPLEI	-0.682
HMKGISRVTMELIIDALKKETEPRTVQWIAEKTGLATQTTYRYLQYMVSEQTVEALNVYGKVVSLKAK	0.153
HMTPSTVQVHVAGAVKNPGVYVLLENARNIDAITAAGGATSEADLERINLSEFIRDGQRVYVPYKGDPI	0.0384
HMGELGPGSRGQAVRALQERLMALGFPLARFGADGIFGRETTGALRAFQHVAGLSPTGLGDHETLKWLGII	-0.351
HMKTRIQDLRKELGVTQSELADAVDVTRQTIISLEGGRYKASLVLAHKLAQFFHVTIEELFIFD	-0.918
HMSSGLLTVQEQRILEHLANGERNGDIAGRLHISEGTVKWHLHNMYRKLDAATRTQAVARARALRL	-0.428
HMELPPLEPIDRILVVQQPINIREQPGVLAKKIGRVSSGETLTILAKVSGQDWYFVETDNGGRGYVFKRV	-0.222
HMEMGNKIKELRTKLGITQEELSKTLNVSSQAVSKWENGGLPDLELIPEIAKYFNVTTDYLFDIK	-0.723

Sequence	soluble fraction (log2)
HMGGEPVSARVPDTLHGARLDATAAALFPDFSRSRLAEWIKAGRLRRNDQPAKPRDKVAVDDHLLLIPEY	-0.431
HMTVVLPGESLTVNIIQEGKELGQGVGYLDDGTMVVIEDGRRYIDQTIEVTVTRVLQTVAGRMIFAQLT	-0.886
HMTSKTLSAVEGEGLRLDKFLSNQLPELSRTKIQKMINDGLVFVNNTEAKASLILDGSEFIAYTVPD	-0.0789
HMLGDIYISIPRAKLQAEEYGHSFKRELAFLAVHGFYHLLGYDHQTKEEEEVMFGKQEEVLAEFDIKR	-0.245
HMPDAENFRYRVPYTTEQNRLQYYEGDIRAENADKARDQVMQDAQKYFAQNTAFTPNYIDTDIISLD	-0.615
HMDQILIHLKEGIDVTDVQPMLKALDLNVRMFNRDKNIIVISVLNRELDAIPQTIAALRPWEELFDSA	-0.184
HMKYLREEDYLPIGSIIRLDDRNFRVDHVNFMFKSVSLQDMDLTNSGQPIFRSESLPHIRELYEQQQNELV	-1.09
HMSNIIGNTAYSAIPDKQYFRLKSETAEKVANYLTENNIPFSGRINGDKTTLTIGQKNVDDYKAAVATVTG	0.304
HMVTEKNALTIEIEDLTKRFGNQRESLLPILQEVQLKHGHISDFAQQEIARLLDIHPVEVYGVVTFFSFLS	-2.43
HMERTQSIEAAREQLGEVTKDNVFETETLGALAILKENEPGEYAKIKADLKGKINMNDLERAVKKAAADQR	-0.0729
HMTKLLSALQADKFAKKLANDTNFGSNFARMGESAMDFTNRLVEELQRDEGKVANYMPYLTKLGF	-0.305
HMVIANADVRAKFSKGKDSFVKYYFKEKVLKDGFTEEVKNNIVQALFYLQIVTRIDGESGVLIIDY	0.187
HMILQTLSERVTETLRDWILHGHFKPGDKIEEVPIAERMGVSRTPVRAAFATLTNEGLIDHQPNRGYQVRV	0.201
HMGQLIGKEEAKQIALSRAGVAEGDISRYESELDTDDGKTKYEISFHVGRVEYDIEINAVTGAVEKFEMDN	0.0113
HMAREQISVSQMVRDVRDGQVKNIEVLGQELRLSYADGSQKVTRKEEGQQALEILFASDIDLAALDLEVQ	-1.16
HMKFPPASDIRRMRKAIDVTQTELAKQSGVSQSTIAKIERGRISASYDTVVKLFETLDEMAK	-0.00924
HMEDKFEYQGELKSLIEPTSFSELVSALNVRDTLQAIIDFAMREEDTSGYEELKVRQNDYIQEYLNSIGNF	-1.28
HMNFMDGFQSFFQESGAMNRPMTADVVSYRLPDGTVQQGNSTMRGLMDQYLKSIGQSPTTGVP	-0.176
HMGDDVRKNILDVLSKFERVDITDLDSLELVRFYLEIEDIFDIEIKENDFYRLKSVDSIVDYIRNKSFF	-1.64
HMPAFGALTLRQRDLVELIAQGLDNSQIAARLGLAEKTVRNHITMIFNKLEMENRSQVIVRARESGFGAVR	-0.228
HMNDVHELPYSSFIEMVERGHVISVTVKHINIEFESTKNENYRTIAPQAMTPPYLELLLKNKDSVKVTFLP	-0.516
HMHLYDMYNLTEKEISIIRLIANGLNNKEISQELFLSEGTIKNNITNILAKLELRDRTQLAIFAFKNKIVI	-0.647
HMLSPAQSLLLRTAARRPDGRVIPPDTLRGGARVKVLTSLLQRGWIEPVDGGHVLTDAGYAAIG	≥ 0.43
HMQFQVHEIKGKEYYIHVVEKGNTLYAISRMYSVPIETLKEENPRLNTTELTIGDRLLIPLDEVKRKNIE	-0.316
HMSKSVEQRRQQIVAWVKEHGQSQVEDLAVRFATSEVTIRKDLAALSQQGLLIRQFGGAVPVPA	0.119
